Data: paper PMC10020564, “Distinct inter-domain interactions of dimeric versus monomeric α-catenin link cell junctions to filaments” (Communications Biology, 2023)

B1: full-length human α-catenin (residues 1–906) (natural protein, UniProt P35221 1-906, looked up)
chain: MTAVHAGNINFKWDPKSLEIRTLAVERLLEPLVTQVTTLVNTNSKGPSNKKRGRSKKAHVLAASVEQATENFLEKGDKIAKESQFLKEELVAAVEDVRKQGDLMKAAAGEFADDPCSSVKRGNMVRAARALLSAVTRLLILADMADVYKLLVQLKVVEDGILKLRNAGNEQDLGIQYKALKPEVDKLNIMAAKRQQELKDVGHRDQMAAARGILQKNVPILYTASQACLQHPDVAAYKANRDLIYKQLQQAVTGISNAAQATASDDASQHQGGGGGELAYALNNFDKQIIVDPLSFSEERFRPSLEERLESIISGAALMADSSCTRDDRRERIVAECNAVRQALQDLLSEYMGNAGRKERSDALNSAIDKMTKKTRDLRRQLRKAVMDHVSDSFLETNVPLLVLIEAAKNGNEKEVKEYAQVFREHANKLIEVANLACSISNNEEGVKLVRMSASQLEALCPQVINAALALAAKPQSKLAQENMDLFKEQWEKQVRVLTDAVDDITSIDDFLAVSENHILEDVNKCVIALQEKDVDGLDRTAGAIRGRAARVIHVVTSEMDNYEPGVYTEKVLEATKLLSNTVMPRFTEQVEAAVEALSSDPAQPMDENEFIDASRLVYDGIRDIRKAVLMIRTPEELDDSDFETEDFDVRSRTSVQTEDDQLIAGQSARAIMAQLPQEQKAKIAEQVASFQEEKSKLDAEVSKWDDSGNDIIVLAKQMCMIMMEMTDFTRGKGPLKNTSDVISAAKKIAEAGSRMDKLGRTIADHCPDSACKQDLLAYLQRIALYCHQLNICSKVKAEVQNLGGELVVSGVDSAMSLIQAAKNLMNAVVQTVKASYVASTKYQKSQGMASLNLPAVSWKMKAPEKKPLVKREKQDETQTKIKRASQKKHVNPVQALSEFKAMDSI
notes: Cloned into pGEX-6P-1; residues of the PreScission site may remain at the N-terminus after cleavage; The same protein elutes as a monomer peak and a dimer peak, which were pooled separately; also called human monomeric α-catenin; human dimeric α-catenin; source: E. coli BL21(DE3), purified (GST Sepharose, PreScission cleavage, Superdex S200; monomer and dimer peaks pooled separately); not shown: …
B2: human α-catenin Δ1–81 (domain or fragment, UniProt P35221 82-906, looked up)
chain: ESQFLKEELVAAVEDVRKQGDLMKAAAGEFADDPCSSVKRGNMVRAARALLSAVTRLLILADMADVYKLLVQLKVVEDGILKLRNAGNEQDLGIQYKALKPEVDKLNIMAAKRQQELKDVGHRDQMAAARGILQKNVPILYTASQACLQHPDVAAYKANRDLIYKQLQQAVTGISNAAQATASDDASQHQGGGGGELAYALNNFDKQIIVDPLSFSEERFRPSLEERLESIISGAALMADSSCTRDDRRERIVAECNAVRQALQDLLSEYMGNAGRKERSDALNSAIDKMTKKTRDLRRQLRKAVMDHVSDSFLETNVPLLVLIEAAKNGNEKEVKEYAQVFREHANKLIEVANLACSISNNEEGVKLVRMSASQLEALCPQVINAALALAAKPQSKLAQENMDLFKEQWEKQVRVLTDAVDDITSIDDFLAVSENHILEDVNKCVIALQEKDVDGLDRTAGAIRGRAARVIHVVTSEMDNYEPGVYTEKVLEATKLLSNTVMPRFTEQVEAAVEALSSDPAQPMDENEFIDASRLVYDGIRDIRKAVLMIRTPEELDDSDFETEDFDVRSRTSVQTEDDQLIAGQSARAIMAQLPQEQKAKIAEQVASFQEEKSKLDAEVSKWDDSGNDIIVLAKQMCMIMMEMTDFTRGKGPLKNTSDVISAAKKIAEAGSRMDKLGRTIADHCPDSACKQDLLAYLQRIALYCHQLNICSKVKAEVQNLGGELVVSGVDSAMSLIQAAKNLMNAVVQTVKASYVASTKYQKSQGMASLNLPAVSWKMKAPEKKPLVKREKQDETQTKIKRASQKKHVNPVQALSEFKAMDSI
notes: also called human dimeric α-catenin Δ1–81; human monomeric α-catenin Δ1–81; source: E. coli BL21(DE3) (said of all α-catenin constructs)
B3: human α-catenin (residues 22–906) (domain or fragment, UniProt P35221 22-906, looked up)
chain: TLAVERLLEPLVTQVTTLVNTNSKGPSNKKRGRSKKAHVLAASVEQATENFLEKGDKIAKESQFLKEELVAAVEDVRKQGDLMKAAAGEFADDPCSSVKRGNMVRAARALLSAVTRLLILADMADVYKLLVQLKVVEDGILKLRNAGNEQDLGIQYKALKPEVDKLNIMAAKRQQELKDVGHRDQMAAARGILQKNVPILYTASQACLQHPDVAAYKANRDLIYKQLQQAVTGISNAAQATASDDASQHQGGGGGELAYALNNFDKQIIVDPLSFSEERFRPSLEERLESIISGAALMADSSCTRDDRRERIVAECNAVRQALQDLLSEYMGNAGRKERSDALNSAIDKMTKKTRDLRRQLRKAVMDHVSDSFLETNVPLLVLIEAAKNGNEKEVKEYAQVFREHANKLIEVANLACSISNNEEGVKLVRMSASQLEALCPQVINAALALAAKPQSKLAQENMDLFKEQWEKQVRVLTDAVDDITSIDDFLAVSENHILEDVNKCVIALQEKDVDGLDRTAGAIRGRAARVIHVVTSEMDNYEPGVYTEKVLEATKLLSNTVMPRFTEQVEAAVEALSSDPAQPMDENEFIDASRLVYDGIRDIRKAVLMIRTPEELDDSDFETEDFDVRSRTSVQTEDDQLIAGQSARAIMAQLPQEQKAKIAEQVASFQEEKSKLDAEVSKWDDSGNDIIVLAKQMCMIMMEMTDFTRGKGPLKNTSDVISAAKKIAEAGSRMDKLGRTIADHCPDSACKQDLLAYLQRIALYCHQLNICSKVKAEVQNLGGELVVSGVDSAMSLIQAAKNLMNAVVQTVKASYVASTKYQKSQGMASLNLPAVSWKMKAPEKKPLVKREKQDETQTKIKRASQKKHVNPVQALSEFKAMDSI
notes: Modified pET28 vector; By the printed forward primer the residues GPHM would remain before T22 after PreScission cleavage (surmise); The dimer was used for the complex with F-actin; in the map only residues 710–871 are ordered; also called Δ1–21 α-catenin; human dimeric α-catenin Δ1–21; source: E. coli BL21(DE3), purified (HisTrap, PreScission cleavage, reverse HisTrap, Superdex S200); not shown: …

Target: the molecule itself
Assay: SEC-MALS; separately pooled dimer peak of a size exclusion run; Superdex S200 10/300 GL, 20 mM Tris-HCl pH 8, 150 mM NaCl, 0.2 mM TCEP, 0.5 ml/min

| Protein | stoichiometry N |
| --- | --- |
| B1 | 2 |
| B2 | 2 |
| B3 | 2 |
